The text below walks through data of doi:10.1101/2023.02.02.526371 (bioRxiv, 2023).

The target in this test is T1, recombinant PIF3-GST (Arabidopsis thaliana, UniProt O80536 1-524).
T1 sequence (looked up): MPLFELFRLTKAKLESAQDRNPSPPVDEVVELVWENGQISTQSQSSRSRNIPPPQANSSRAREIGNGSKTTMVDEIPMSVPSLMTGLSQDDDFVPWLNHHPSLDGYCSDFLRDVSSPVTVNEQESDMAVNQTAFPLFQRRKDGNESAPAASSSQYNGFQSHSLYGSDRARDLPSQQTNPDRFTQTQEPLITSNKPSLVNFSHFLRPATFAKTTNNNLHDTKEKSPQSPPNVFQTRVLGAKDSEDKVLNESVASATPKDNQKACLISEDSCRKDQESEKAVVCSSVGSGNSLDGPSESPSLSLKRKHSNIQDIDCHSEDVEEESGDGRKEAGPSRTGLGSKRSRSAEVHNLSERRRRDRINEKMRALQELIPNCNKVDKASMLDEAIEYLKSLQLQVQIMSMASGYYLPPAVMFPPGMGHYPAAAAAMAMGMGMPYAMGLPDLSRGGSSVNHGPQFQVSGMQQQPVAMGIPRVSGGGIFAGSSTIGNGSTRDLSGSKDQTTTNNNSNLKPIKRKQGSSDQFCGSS
Kind of test: pull-down.

B1: His-tagged kinase domain of FER (518-816 amino acids, FER-KD) (domain or fragment)
chain: not shown
As for B1, the binding result is given as “binds”.
